The text below walks through data of publication PMC11388081, “Targeted degradation of VEGF with bispecific aptamer-based LYTACs ameliorates pathological retinal angiogenesis”.

The data set concerns the target VEGF (HZ-1038, Proteintech) (UniProt P15692-4 27-191). Nature of the data set: MST; strongest of V4-V6; Kd only in figure; 20 mM CaCl2; MST: 5 nM Cy5-LYTAC, 20 mM Tris-HCl pH 8.5, 20 mM KCl, 20 mM CaCl2, 0.1% Tween 20, 10 min, temperature not stated; pulldown: cell lysate with LYTAC in DPBS-Mg. Particulars: protein: commercial; chain copies: 2; biotin implied in pulldown; 23-bp linker duplex formed by both 5' ends, 3' single-stranded aptamer tails.

Sequence of VEGF (HZ-1038, Proteintech) (P15692 other isoform, or with tags, fused parts or gaps): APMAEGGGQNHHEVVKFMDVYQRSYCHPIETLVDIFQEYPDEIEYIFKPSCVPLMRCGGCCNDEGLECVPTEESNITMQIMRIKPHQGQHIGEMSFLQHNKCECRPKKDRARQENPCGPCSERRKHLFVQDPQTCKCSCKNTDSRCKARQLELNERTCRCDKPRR

B1: V5 (M6PR-A / VEGF-A2 LYTAC) (mixed)
DNA 1: CCCCCACACGTAAATCAGTCATAGGGCGCGTAGATGACGAGCAGTCCTAACATCGTTTAGGAC
DNA 2: TATGACTGATTTACGTGTGGGGGTGTGGGGGTGGACGGGCCGGGTAGA
modifications: 5'-phosphate on strand 1 (T4 DNA ligase step stated)
B1: the binding result is reported as “binds”.
